The labels stand for the following.
B1: SETD8 (parent)
chain: KKAQGKTQQNRKLTDFYPVRRSSR
B2: ANKRD40 (parent)
chain: YQELLRVCCCELGVNPDQVEKIRK

The source of these data is the supplement of paper PMC10567573.
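Further: lentivirally expressed fusions sorted by FACS into six bins by GFP to DsRed ratio, PSI derived from sequencing read proportions per bin multiplied by bin number.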

The variants in the first series derive from B1. As to the kind of experiment: protein stability index of a GFP-peptide fusion (GPS, HEK-293T) (PSI 1-6); higher = more stable. The following applies: c terminus: a fixed tail appended.
In the case of KKAQGKTQQNRKLTDFYPVRRSST [R24T], the protein stability index came to 2.75.

In the case of KKAQGKTQQNRKLTDFYPVRRSSN [R24N], the protein stability index came to 2.76.

Consider KKAQGKTQQNRKLTDFYPVRRSSP [R24P], for which the protein stability index came out at 3.87.

On to KKAQGKTQQNRKLTDFYPVRRSSC [R24C], for which the protein stability index amounted to 3.61.

In the case of KKAQGKTQQNRKLTDFYPVRRSSA [R24A], the protein stability index turned out to be 2.12.

As to KKAQGKTQQNRKLTDFYPVRRSSM [R24M], the protein stability index stood at 3.16.

As for KKAQGKTQQNRKLTDFYPVRRSSS [R24S], the protein stability index stood at 3.83.

Take KKAQGKTQQNRKLTDFYPVRRSSF [R24F]: the protein stability index amounted to 2.57.

As to KKAQGKTQQNRKLTDFYPVRRSSL [R24L], the protein stability index amounted to 2.08.

In the case of KKAQGKTQQNRKLTDFYPVRRSSH [R24H], the protein stability index turned out to be 2.54.

As to KKAQGKTQQNRKLTDFYPVRRSSQ [R24Q], the protein stability index came to 1.06.

In the case of KKAQGKTQQNRKLTDFYMVRRSSR [P18M], the protein stability index was determined as 3.82.

As for KKAQGKTQQNRKLTDFYYVRRSSR [P18Y], the protein stability index amounted to 2.51.

For the variant KKAQGKTQQNRKLTDFYTVRRSSR [P18T], the protein stability index is 3.77.

In the case of KKAQGKTQQNRKLTDFYWVRRSSR [P18W], the protein stability index was determined as 3.18.

KKAQGKTQQNRKLTDFYLVRRSSR [P18L]: the protein stability index is 3.36.

For the variant KKAQGKTQQNRKLTDFYRVRRSSR [P18R], the protein stability index was 2.54.

For the variant KKAQGKTQQNRKLTDFYQVRRSSR [P18Q], the protein stability index was determined as 1.74.

For KKAQGKTQQNRKLTDFYNVRRSSR [P18N], the protein stability index stood at 1.86.

Take KKAQGKTQQNRKLTDFYPVRRSPR [S23P]: the protein stability index amounted to 2.65.

As for KKAQGKTQQNRKLTDFYPVRRSAR [S23A], the protein stability index stood at 3.62.

As for KKAQGKTQQNRKLTDFYPVRRSKR [S23K], the protein stability index was 4.11.

In the case of KKAQGKTQQNRKLTDFYPVRRSTR [S23T], the protein stability index was determined as 2.23.

Consider KKAQGKTQQNRKLTDFYPVRRSDR [S23D], for which the protein stability index turned out to be 3.09.

For the variant KKAQGKTQQNRKLTDFYPVRRSMR [S23M], the protein stability index worked out at 3.18.

With KKAQGKTQQNRKLTDFYPVRRSER [S23E], the protein stability index is 3.5.

With KKAQGKTQQNRKLTDFYPVRRSLR [S23L], the protein stability index was 4.44.

With KKAQGKTQQNRKLTDFYPVRRSRR [S23R], the protein stability index worked out at 2.16.

KKAQGKTQQNRKLTDFYPVRRSYR [S23Y]: the protein stability index was 3.04.

For the variant KKAQGKTQQNRKLTDFYPVRRSHR [S23H], the protein stability index worked out at 2.7.

With KKAQGKTQQNRKLTDFYPVRRSNR [S23N], the protein stability index came to 2.66.

On to KKAQGKTQQNRKLTDFYPVRRSGR [S23G], for which the protein stability index stood at 1.83.

For the variant KKAQGKTQQNRKLTDFYPVRRSFR [S23F], the protein stability index was determined as 3.54.

Regarding KKAQGKTQQNRKLTDFYPQRRSSR [V19Q], the protein stability index is 3.49.

For KKAQGKTQQNRKLTDFYPYRRSSR [V19Y], the protein stability index was found to be 3.35.

As to KKAQGKTQQNRKLTDFYPGRRSSR [V19G], the protein stability index stood at 4.08.

With KKAQGKTQQNRKLTDFYPHRRSSR [V19H], the protein stability index was determined as 3.63.

Turning to KKAQGKTQQNRKLTDFYPTRRSSR [V19T], the protein stability index is 2.72.

Turning to KKAQGKTQQNRKLTDFYPCRRSSR [V19C], the protein stability index is 3.26.

Consider KKAQGKTQQNRKLTDFYPRRRSSR [V19R], for which the protein stability index is 4.2.

KKAQGKTQQNRKLTDFYPFRRSSR [V19F]: the protein stability index was 2.42.

Turning to KKAQGKTQQNRKLTDFYPARRSSR [V19A], the protein stability index is 4.57.

In the case of KKAQGKTQQNRKLTDFYPPRRSSR [V19P], the protein stability index was found to be 2.88.

For the variant KKAQGKTQQNRKLTDFYPNRRSSR [V19N], the protein stability index came to 3.29.

Regarding KKAQGKTQQNRKLTDFYPLRRSSR [V19L], the protein stability index was found to be 3.11.

Take KKAQGKTQQNRKLTDFYPKRRSSR [V19K]: the protein stability index is 2.02.

On to KKAQGKTQQNRKLTDFYPWRRSSR [V19W], for which the protein stability index was 2.09.

Consider KKAQGKTQQNRKLTDFYPDRRSSR [V19D], for which the protein stability index stood at 3.32.

Consider KKAQGKTQQNRKLTDFYPERRSSR [V19E], for which the protein stability index was found to be 3.84.

Regarding KKAQGKTQQNRKLTDFYPMRRSSR [V19M], the protein stability index worked out at 3.01.

Consider KKAQGKTQQNRKLTDFYPIRRSSR [V19I], for which the protein stability index was determined as 3.13.

As for KKAQGKTQQNRKLTDFYPVRRPSR [S22P], the protein stability index was found to be 2.89.

Consider KKAQGKTQQNRKLTDFYPVRRGSR [S22G], for which the protein stability index amounted to 2.42.

Turning to KKAQGKTQQNRKLTDFYPVRRLSR [S22L], the protein stability index is 2.02.

As to KKAQGKTQQNRKLTDFYPVRRQSR [S22Q], the protein stability index worked out at 2.37.

Turning to KKAQGKTQQNRKLTDFYPVRRHSR [S22H], the protein stability index came out at 1.38.

As for KKAQGKTQQNRKLTDFYPVRRYSR [S22Y], the protein stability index is 3.06.

For the variant KKAQGKTQQNRKLTDFYPVRRMSR [S22M], the protein stability index is 3.38.

As for KKAQGKTQQNRKLTDFYPVRRASR [S22A], the protein stability index came to 2.92.

Regarding KKAQGKTQQNRKLTDFYPVRRTSR [S22T], the protein stability index worked out at 2.63.

Regarding KKAQGKTQQNRKLTDFYPVWRSSR [R20W], the protein stability index was 3.22.

Take KKAQGKTQQNRKLTDFYPVDRSSR [R20D]: the protein stability index was 3.66.

For the variant KKAQGKTQQNRKLTDFYPVSRSSR [R20S], the protein stability index turned out to be 2.

In the case of KKAQGKTQQNRKLTDFYPVNRSSR [R20N], the protein stability index came out at 2.83.

For the variant KKAQGKTQQNRKLTDFYPVYRSSR [R20Y], the protein stability index came out at 2.25.

For KKAQGKTQQNRKLTDFYPVKRSSR [R20K], the protein stability index is 1.93.

On to KKAQGKTQQNRKLTDFYPVMRSSR [R20M], for which the protein stability index turned out to be 2.94.

As to KKAQGKTQQNRKLTDFYPVLRSSR [R20L], the protein stability index was 2.32.

Turning to KKAQGKTQQNRKLTDFYPVQRSSR [R20Q], the protein stability index is 3.48.

Regarding KKAQGKTQQNRKLTDFYPVTRSSR [R20T], the protein stability index was 1.92.

In the case of KKAQGKTQQNRKLTDFYPVPRSSR [R20P], the protein stability index was 4.13.

Consider KKAQGKTQQNRKLTDFYPVGRSSR [R20G], for which the protein stability index came to 3.43.

With KKAQGKTQQNRKLTDFYPVCRSSR [R20C], the protein stability index worked out at 2.78.

Turning to KKAQGKTQQNRKLTDFYPVFRSSR [R20F], the protein stability index was determined as 2.63.

On to KKAQGKTQQNRKLTDFYPVVRSSR [R20V], for which the protein stability index amounted to 3.67.

In the case of KKAQGKTQQNRKLTDFYPVRKSSR [R21K], the protein stability index was 2.66.

KKAQGKTQQNRKLTDFYPVRPSSR [R21P]: the protein stability index stood at 2.7.

Regarding KKAQGKTQQNRKLTDFYPVRNSSR [R21N], the protein stability index worked out at 3.2.

In the case of KKAQGKTQQNRKLTDFYPVRMSSR [R21M], the protein stability index was 3.63.

As for KKAQGKTQQNRKLTDFYPVRVSSR [R21V], the protein stability index was 3.

In the case of KKAQGKTQQNRKLTDFYPVRISSR [R21I], the protein stability index was found to be 3.33.

For the variant KKAQGKTQQNRKLTDFYPVRSSSR [R21S], the protein stability index is 3.25.

As for KKAQGKTQQNRKLTDFYPVRWSSR [R21W], the protein stability index came out at 2.57.

KKAQGKTQQNRKLTDFYPVRGSSR [R21G]: the protein stability index was determined as 2.9.

In the case of KKAQGKTQQNRKLTDFYPVRESSR [R21E], the protein stability index turned out to be 3.17.

Consider KKAQGKTQQNRKLTDFYPVRASSR [R21A], for which the protein stability index came to 2.52.

With KKAQGKTQQNRKLTDFYPVRTSSR [R21T], the protein stability index turned out to be 2.23.

As for KKAQGKTQQNRKLTDFYPVRCSSR [R21C], the protein stability index was 2.23.

Regarding KKAQGKTQQNRKLTDFYPVRDSSR [R21D], the protein stability index is 3.23.

Variants of B2 are the subject of a further series. The series is described as above. The following applies: c terminus: a fixed tail appended.
Regarding EQELLRVCCCELGVNPDQVEKIRK [Y1E], the protein stability index was 3.69.

Take CQELLRVCCCELGVNPDQVEKIRK [Y1C]: the protein stability index worked out at 1.95.

Regarding FQELLRVCCCELGVNPDQVEKIRK [Y1F], the protein stability index was 1.99.

For the variant DQELLRVCCCELGVNPDQVEKIRK [Y1D], the protein stability index was found to be 3.49.

For the variant AQELLRVCCCELGVNPDQVEKIRK [Y1A], the protein stability index came out at 2.96.
